Source: patent US20260151420A1

Target: mouse LAG3 on Pmel-1 or Pmel-1xLy108 KO splenocytes (mouse) (UniProt Q61790)
Test: cell-based or functional assay

UniProt Q61790, sequence (Q61790 24-521): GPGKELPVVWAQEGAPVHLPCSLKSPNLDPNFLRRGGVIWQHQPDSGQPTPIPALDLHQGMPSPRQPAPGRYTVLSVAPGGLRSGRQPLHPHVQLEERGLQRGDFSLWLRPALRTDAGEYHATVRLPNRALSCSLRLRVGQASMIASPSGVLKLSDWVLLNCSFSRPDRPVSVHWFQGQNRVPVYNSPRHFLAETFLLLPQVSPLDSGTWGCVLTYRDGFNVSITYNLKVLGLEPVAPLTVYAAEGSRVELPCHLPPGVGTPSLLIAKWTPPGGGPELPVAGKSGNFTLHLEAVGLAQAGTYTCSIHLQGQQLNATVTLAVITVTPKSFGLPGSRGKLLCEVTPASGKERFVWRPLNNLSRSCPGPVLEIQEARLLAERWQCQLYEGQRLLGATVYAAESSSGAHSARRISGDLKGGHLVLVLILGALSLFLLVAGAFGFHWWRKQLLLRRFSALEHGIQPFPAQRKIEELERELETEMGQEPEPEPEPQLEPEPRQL

- IFN-γ production (ELISA), Pmel-1×Ly108 KO cells with anti-LAG3 compared to Ly108-expressing cells: 3 fold
- IFN-γ secretion (ELISA) of Pmel-1 splenocytes activated with anti Lag3 (10 µg/ml), compared to no treatment: 1.5 fold
Substance: anti-LAG3 blocking antibody (BioXCell, clone: C9B7W, cat: BE0174)
